Measurements published in patent US11802878B2, “Protein sequencing method and reagents” (The Governing Council of the University of Toronto, priority 2009, dated 2023).
Entries after “also recorded” stand apart in the source; their conditions may differ. Residues, ends and D or L forms follow the SMILES beside them.

What was measured:
[1] = target: T1, ClpS variant W1 (Escherichia coli, UniProt P0A8Q6, L99A/M40A/M62C/P98A/V43C/V65A); assay: Competitive phage ELISA, non-biotinylated peptide competitors against immobilized Wpep; type: binding, E. coli; details: FIG. 13 legend; result in words
T1 construct: ST2 secretion signal (N, cleaved yes); made in house; host or cells: M13 phage display, amplified in E. coli XL1Blue with helper phage M13K07
Experimental: Error bars represent 95% confidence intervals (n=2).
Each phage pool was then briefly incubated in wells of a microtitre plate with Wpep ([sequence](biotin)) immobilized on neutravidin. Non-binding phage were washed away, and retained phage were detected using an enzymatically-labeled antibody against the filamentous phage particle and an appropriate colorimetric substrate. The value for W1 binding to neutravidin alone was subtracted from the binding signal from every well to correct for non-specific binding. The ELISA values were then expressed as proportions, relative to the maximum ELISA signal in absence of competitor. Error bars represent 95% confidence intervals (n=2).

[2] = test system: immobilized biotinylated peptide, N-terminal amino acid G (X-SDGMFTAGSLIGK(biotin)); assay: Phage ELISA, binding to immobilized peptide, N-terminal G; details: N-terminal G; phage 1X; sub Fab
Experimental: (§1) Given the discovery that the specificity pocket library was functionally robust, selections against synthetic peptide ligands were carried out using this library. The specificity pocket library was selected against 20 biotinylated peptides, each with a different N-terminal residue atop a common leader sequence (X-SDGMFTAGSLIGK(biotin)) (SEQ ID NO: 4). The peptides were immobilized individually to the bottom wells of a microtiter plate. […] Consequently, ClpS mutant variants that prefer other residues in addition to the ligand ‘bait’ would bind those competing peptides in solution and simply be washed away. Only selective variants that bound to the immobilized target(s) were amplified during each subsequent round of selection.
(§2) To evaluate the specificity and selectivity of individual clones, both wild-type ClpS and the selected variants' binding to each of the biotinylated peptides independently were tested. The same approach was also used to monitor the progress of the selections and to prioritize particular pools of phage for further investigation.
(§3) Promising single clones were picked from the selection pools and their specificity was evaluated using the same panel of biotinylated peptides and various amounts of phage supernatant. […] Accordingly, Variant 1 represents a selective N-terminal amino acid capture probe for tryptophan useful for the sequencing methods described herein. Variant 1 also represents a useful scaffold for performing further generation and selection of variants with desirable properties for use as additional N-terminal amino acid capture probes.
(§4) The selection and ELISA protocols are very similar. Briefly, each well of a 96-well Maxisorp plate was coated overnight at 4° C. with 100 μl of 10 μg/ml neutravidin in PBS, or 1:500 dilution of anti-FLAG antibody. […]
(§5) For the ELISA readouts, 100 μl of pH adjusted phage supernatant or polyethylene glycol (PEG) precipitated concentrated phage was added to appropriate wells and allowed to bind for 1 hour at 4° C. […] The reaction was stopped by addition of 90 μl of 1M H3PO4 and the absorbance at A450 nm was read.

[3] = test system: immobilized biotinylated peptide, N-terminal amino acid C (X-SDGMFTAGSLIGK(biotin)); assay: Phage ELISA, binding to immobilized peptide, N-terminal C; details: N-terminal C; phage 1X; sub Fab
Experimental: as §1, §2, §3, §4, §5

[4] = test system: immobilized biotinylated peptide, N-terminal amino acid A (X-SDGMFTAGSLIGK(biotin)); assay: Phage ELISA, binding to immobilized peptide, N-terminal A; details: N-terminal A; phage 1X; sub Fab
Experimental: as §1, §2, §3, §4, §5

[5] = test system: immobilized biotinylated peptide, N-terminal amino acid R (X-SDGMFTAGSLIGK(biotin)); assay: Phage ELISA, binding to immobilized peptide, N-terminal R; details: N-terminal R; phage 1X; sub Fab
Experimental: as §1, §2, §3, §4, §5

[6] = test system: panel of 20 biotinylated peptides, each with a different N-terminal residue (X-SDGMFTAGSLIGK(biotin)); assay: Phage ELISA specificity profile over the panel of biotinylated peptides; type: binding; details: phage displayed; result in words; listed as ClpS Variant 1
Experimental: as §1
To evaluate the specificity and selectivity of individual clones, both wild-type ClpS and the selected variants' binding to each of the biotinylated peptides independently were tested. […]
Promising single clones were picked from the selection pools and their specificity was evaluated using the same panel of biotinylated peptides and various amounts of phage supernatant. […]
as §5

[7] = test system: immobilized biotinylated peptide, N-terminal amino acid F (X-SDGMFTAGSLIGK(biotin)); assay: Phage ELISA, binding to immobilized peptide, N-terminal F; details: N-terminal F; phage 1X; sub Fab
Experimental: as §1, §2, §3, §4, §5

[8] = test system: immobilized biotinylated peptide, N-terminal amino acid P (X-SDGMFTAGSLIGK(biotin)); assay: Phage ELISA, binding to immobilized peptide, N-terminal P; details: N-terminal P; phage 1X; sub Fab
Experimental: as §1, §2, §3, §4, §5

[9] = test system: immobilized biotinylated peptide, N-terminal amino acid T (X-SDGMFTAGSLIGK(biotin)); assay: Phage ELISA, binding to immobilized peptide, N-terminal T; details: N-terminal T; phage 1X; sub Fab
Experimental: as §1, §2, §3, §4, §5

[10] = test system: immobilized biotinylated peptide, N-terminal amino acid V (X-SDGMFTAGSLIGK(biotin)); assay: Phage ELISA, binding to immobilized peptide, N-terminal V; details: N-terminal V; phage 1X; sub Fab
Experimental: as §1, §2, §3, §4, §5

[11] = test system: immobilized biotinylated peptide, N-terminal amino acid D (X-SDGMFTAGSLIGK(biotin)); assay: Phage ELISA, binding to immobilized peptide, N-terminal D; details: N-terminal D; phage 1X; sub Fab
Experimental: as §1, §2, §3, §4, §5

[12] = test system: immobilized biotinylated peptide, N-terminal amino acid K (X-SDGMFTAGSLIGK(biotin)); assay: Phage ELISA, binding to immobilized peptide, N-terminal K; details: N-terminal K; phage 1X; sub Fab
Experimental: as §1, §2, §3, §4, §5

[13] = test system: immobilized biotinylated peptide, N-terminal amino acid S (X-SDGMFTAGSLIGK(biotin)); assay: Phage ELISA, binding to immobilized peptide, N-terminal S; details: N-terminal S; phage 1X; sub Fab
Experimental: as §1, §2, §3, §4, §5

[14] = test system: immobilized biotinylated peptide, N-terminal amino acid I (X-SDGMFTAGSLIGK(biotin)); assay: Phage ELISA, binding to immobilized peptide, N-terminal I; details: N-terminal I; phage 1X; sub Fab
Experimental: as §1, §2, §3, §4, §5

[15] = test system: immobilized biotinylated peptide, N-terminal amino acid M (X-SDGMFTAGSLIGK(biotin)); assay: Phage ELISA, binding to immobilized peptide, N-terminal M; details: N-terminal M; phage 1X; sub Fab
Experimental: as §1, §2, §3, §4, §5

[16] = test system: immobilized biotinylated peptide, N-terminal amino acid Q (X-SDGMFTAGSLIGK(biotin)); assay: Phage ELISA, binding to immobilized peptide, N-terminal Q; details: N-terminal Q; phage 1X; sub Fab
Experimental: as §1, §2, §3, §4, §5

[17] = test system: immobilized biotinylated peptide, N-terminal amino acid W (X-SDGMFTAGSLIGK(biotin)); assay: Phage ELISA, binding to immobilized peptide, N-terminal W; details: N-terminal W; phage 1X; sub Fab
Experimental: as §1, §2, §3, §4, §5

[18] = test system: immobilized biotinylated peptide, N-terminal amino acid Y (X-SDGMFTAGSLIGK(biotin)); assay: Phage ELISA, binding to immobilized peptide, N-terminal Y; details: N-terminal Y; phage 1X; sub Fab
Experimental: as §1, §2, §3, §4, §5

[19] = test system: immobilized biotinylated peptide, N-terminal amino acid L (X-SDGMFTAGSLIGK(biotin)); assay: Phage ELISA, binding to immobilized peptide, N-terminal L; details: N-terminal L; phage 1X; sub Fab
Experimental: as §1, §2, §3, §4, §5

[20] = test system: immobilized biotinylated peptide, N-terminal amino acid E (X-SDGMFTAGSLIGK(biotin)); assay: Phage ELISA, binding to immobilized peptide, N-terminal E; details: N-terminal E; phage 1X; sub Fab
Experimental: as §1, §2, §3, §4, §5

[21] = test system: immobilized biotinylated peptide, N-terminal amino acid H (X-SDGMFTAGSLIGK(biotin)); assay: Phage ELISA, binding to immobilized peptide, N-terminal H; details: N-terminal H; phage 1X; sub Fab
Experimental: as §1, §2, §3, §4, §5

[22] = test system: immobilized biotinylated peptide, N-terminal amino acid N (X-SDGMFTAGSLIGK(biotin)); assay: Phage ELISA, binding to immobilized peptide, N-terminal N; details: N-terminal N; phage 1X; sub Fab
Experimental: as §1, §2, §3, §4, §5

CC[C@H](C)[C@H](NC(=O)[C@H](CC(C)C)NC(=O)[C@H](CO)NC(=O)CNC(=O)[C@H](C)NC(=O)[C@@H](NC(=O)[C@H](Cc1ccccc1)NC(=O)[C@H](CCSC)NC(=O)CNC(=O)[C@H](CC(=O)O)NC(=O)[C@H](CO)NC(=O)[C@@H](N)Cc1c[nH]c2ccccc12)[C@@H](C)O)C(=O)O [Wpep] (H-WSDGMFTAGSLI-OH; N-terminus and C-terminus assumed)
effective competitor for binding ClpS Variant 1 [1]: effective competitor

B1: Variant 1: engineered ClpS variant, SEQ ID NO: 2, binds N-terminal tryptophan selectively (protein)
chain: KPPSMYKVILVNDDYTPAEFCIDVLQKFFSYDVERATQLCLAAHYQGKAICGVFTAEVAETKVAMVNKYARENEHAALCTLEKA
phage ELISA binding signal [2]: 0.028
phage ELISA binding signal [3]: 0.066
phage ELISA binding signal [4]: 0.018
phage ELISA binding signal [5]: 0.04
binding specificity / preference for N-terminal amino acids [6]: selectively binds polypeptides with the N-terminal amino acid tryptophan; also recorded: bound specifically to tryptophan alone; also recorded: selectively binds tryptophan N-terminal amino acids
phage ELISA binding signal [7]: 0.083
phage ELISA binding signal [8]: 0.062
phage ELISA binding signal [9]: −0.005
phage ELISA binding signal [10]: 0.032
phage ELISA binding signal [11]: −0.017
phage ELISA binding signal [12]: 0.129
phage ELISA binding signal [13]: −0.001
phage ELISA binding signal [14]: −0.023
phage ELISA binding signal [15]: −0.003
phage ELISA binding signal [16]: 0.065
phage ELISA binding signal [17]: 2.636
phage ELISA binding signal [18]: 0.045
phage ELISA binding signal [19]: 0.069
phage ELISA binding signal [20]: 0.032
phage ELISA binding signal [21]: −0.001
phage ELISA binding signal [22]: 0.052
